Results reported in article PMC6332795 (Theranostics, 2019).

T1: hemagglutinin (HA) of influenza B virus B/Lee/1940, on purified virus (influenza B virus (B/Lee/1940))
T1 chain: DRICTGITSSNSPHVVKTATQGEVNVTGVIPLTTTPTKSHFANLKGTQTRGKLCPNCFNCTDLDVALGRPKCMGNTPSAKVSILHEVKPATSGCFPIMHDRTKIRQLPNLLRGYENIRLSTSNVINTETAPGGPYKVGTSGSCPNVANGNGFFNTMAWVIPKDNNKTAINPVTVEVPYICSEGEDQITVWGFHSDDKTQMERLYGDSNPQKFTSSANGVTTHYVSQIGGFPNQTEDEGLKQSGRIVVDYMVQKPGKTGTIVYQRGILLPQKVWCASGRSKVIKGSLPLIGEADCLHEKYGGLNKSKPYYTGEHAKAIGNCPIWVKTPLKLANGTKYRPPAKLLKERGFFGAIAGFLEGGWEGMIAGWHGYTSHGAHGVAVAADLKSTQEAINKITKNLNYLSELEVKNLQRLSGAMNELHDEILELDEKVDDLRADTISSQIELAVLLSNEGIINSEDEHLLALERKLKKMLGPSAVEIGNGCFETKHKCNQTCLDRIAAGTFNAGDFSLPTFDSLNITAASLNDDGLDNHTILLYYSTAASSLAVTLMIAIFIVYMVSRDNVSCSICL


Experiments:
[1] = target: T1, hemagglutinin (HA) of influenza B virus …; test: ELISA
[2] = target: B/Florida/4/2006 HA (recombinant HA protein) (Influenza B virus (B/Florida/4/2006), UniProt E1TVD5, strain, biotin (EZ-Link Sulfo-NHS-LC-Biotin kit)); test: BLI

| Binder | binding result [1] | Kd [2] [µM] |
| --- | --- | --- |
| C3G10-IgM (antibody, V domains shown) VH: EVQLQESGAELVKPGASVKLSCTASGFDIKDTYIHWVKQKPEKGLEWIGRIDPADGDTQSDPRFQGKATITSDTSSNTTYLHLSSLTSEDTAVYYCAKGGWYFDVWGAGTTVTVSS VL: HIVLTQSPASLAVSLGQRGTISCRASESVDSYGNSFMHWYQQRPGQPPKLLIYLASKLKCGVPARFSGSGSRTDFTLTNDPLEGGDGATYYCQQNNEVPRTFGGGTKLEIK | binds |  |
| C3G10-IgG (antibody, V domains shown) VH: EVQLQESGAELVKPGASVKLSCTASGFDIKDTYIHWVKQKPEKGLEWIGRIDPADGDTQSDPRFQGKATITSDTSSNTTYLHLSSLTSEDTAVYYCAKGGWYFDVWGAGTTVTVSS VL: HIVLTQSPASLAVSLGQRGTISCRASESVDSYGNSFMHWYQQRPGQPPKLLIYLASKLKCGVPARFSGSGSRTDFTLTNDPLEGGDGATYYCQQNNEVPRTFGGGTKLEIK | binds |  |
| C10H10-IgM (antibody, V domains shown) VH: EIQLQQSGPELVKPGASLKVSCKGFGYSFTDYKMYWVKQSHGKSLEWIGYIDPYNGGMRYNQKFKVKATLTVDMSSNTTFMHLNSLTFEDFAVYYCARGYGKNYAMEYWGQGTSVTVSS VL: NIVLTQSPASLAVSLGQRATISCRASESVDTYGQSFMHWYQQKPGQPPKLLIHLASNLESGVPARFNGSGSRTDFTLTIDPVEADDAATYYCQQNNEDPYTFGGGTKLEIK | no binding |  |
| C10H10-IgG (antibody, V domains shown) VH: EIQLQQSGPELVKPGASLKVSCKGFGYSFTDYKMYWVKQSHGKSLEWIGYIDPYNGGMRYNQKFKVKATLTVDMSSNTTFMHLNSLTFEDFAVYYCARGYGKNYAMEYWGQGTSVTVSS VL: NIVLTQSPASLAVSLGQRATISCRASESVDTYGQSFMHWYQQKPGQPPKLLIHLASNLESGVPARFNGSGSRTDFTLTIDPVEADDAATYYCQQNNEDPYTFGGGTKLEIK | no binding |  |
| C7G6-IgM (antibody, V domains shown) VH: EVQLQQSGPELVKPGASVKISCKASGYTFTDYNMHWVKQSLGKSLEWIGYIYPNNGGTGYNQKFESKATLTADNSSSTAYMELRTLTSEDSAVYYCVRSGAYYFNYLVPYFDYWGQGTTLTVSS VL: NIVLTQSPASLAVSLGQRGTISCRASESVDIYGNSFMHWYQQKPGQPPKLLIYLASKLECGVCARFNGSGCRTDFTLAIDPVEGDDGATYYCQQNYEDPWTFGGGTKLEIK | binds | 0.00058 |
| C11B10 (antibody, V domains shown) VH: EVQLQQSGPELVKPGASVKISCKASGYTFTGYNMHWVKQSHGKSLEWIGKIYPNNGVTGYNQEFRSKATLTVDNSSSTAYMELRSLTSEDSAIYFCVRSGAYYVNYLVPYFDYWGQGTTLTVSS VL: NIVLTQSPASLAVSPGQRATISCRASESIDIYGNSFMHWYQKKPGQPPKLLIYRASNLESGVPARFNGSGSRTDFTLTIDPVEGDDGATYYCQQNYEDPWTFGGGTKLEIK | no binding |  |
| C7G6-IgG (antibody, V domains shown) VH: EVQLQQSGPELVKPGASVKISCKASGYTFTDYNMHWVKQSLGKSLEWIGYIYPNNGGTGYNQKFESKATLTADNSSSTAYMELRTLTSEDSAVYYCVRSGAYYFNYLVPYFDYWGQGTTLTVSS VL: NIVLTQSPASLAVSLGQRGTISCRASESVDIYGNSFMHWYQQKPGQPPKLLIYLASKLECGVCARFNGSGCRTDFTLAIDPVEGDDGATYYCQQNYEDPWTFGGGTKLEIK | binds | 0.0247 |
